Results on 21 sequences are retold here after the DeepSol protein solubility set.

The data set is described as follows: soluble on expression in E. coli; label from the status in PepcDB or PDB records.
As for “RADPDPMKNTCKLLVVADHRFYRYMGRGEESTTTNYLIELIDRVDDIYRNTAWDNAGFKGYGIQIEQIRILKSPQEVKPGEKHYNMAKSYPNEEKDAWDVKMLLEQFSFDIAEEASKVCLAHLFTYQDFDMGTLGLAYVGSPRANSHGGVCPKAYYSPVGKKNIYLNSGLTSTKNYGKTILTKEADLVTTHELGHNFGAEHDPDGLAECAPNEDQGGKYVMYPIAVSGDHENNKMFSQCSKQSIYKTIESKAQECFQERSNKVGSHHHHHH”, the “soluble on expression in E. coli” value is reported as “soluble”.
For the sequence “RAETAVQRTEDRYHNLVDTAPIPILLFDRDWKALYANEAAIAFLDADSFTEIAGKKASDFLHPDERDAARKRFQRLMREGVSVPEREYRVMTAEGEVKTATIATAPGYYRGEQVAQAMVYR”, the “soluble on expression in E. coli” value is on record as “soluble”.
Regarding “RAHQRWREHALAVIKDKMYNHIGSILVFLPGVADIRFLLDSLMAQKVEGVKICPLFGELSLKEQQQAIAPCLSGHRKIVLATNIAETSLTIDGIDLVIDCGLEKVAVFDSASLMNKLMQKQISKASAVQRAGRAGRLMHGQCIRLYGKDDFERR”, the “soluble on expression in E. coli” value is reported as “not soluble”.
As for “RCPELYRGVVMLDSPVLGLADKLFIRAAKRLGFIDRITPAGRTLGRRDAFADLDAARTYFASKTLFRRFDPDCLTAYLQHGLQQDGEQLRLRFDPATEISIYRSIPHTSPLPSRQLKVPLAMVRGKHSRVIMPHHGYLARRMRDGEYLSMPGGHMFPLERPDETAQLLKSLFARWDA”, the entry is “not soluble”; as for “RDVVGVGFGPANLALAIAIEEHNAECPPRERISAQFFEKQDRFGWHPGMLLDGATMQIAFPKDLVTFRNPRSAFTFFNYLFDQGRLVDFVNHQTFFPTRHEFHDYLQWAARRVDADVRYGTAVETVRGIRGDDGVIDRFEVRTADGSTVIARNVVMGAGLRERIPEWANPSARCFHNHQFLFRLGEMPAPVHHRFVVLGAGQSAAEIVQYLHGN”, “not soluble”.
As for “REATWVTEKPLTLKIHMHFRDKWVWDENWPVAREVARLTNVKLVGVANRAATNSQEQFNLMMASGQLPDIVGGDNLKDKFIRYGMEGAFIPLNKLIDQNAPNLKAFFKTHPEVQRAITAPDGNIYYLPYVPDGLVSRGYFIRQDWLDKLHLKTPQTVDELYTVLKAFKEKDPNGNGKADEIPFINRDPEEVFRLVNFWGARSTGSNTWMDFYVENGKIKHPFAEVAFKDGIKHVAQWYKEGLIDPEIFTRKARSREQTFGNNIGGMTHDWFASTALFNDALSKNIPGFKLVPMAPPINSKGQRWEEDARQIPRPDGWAITATNKNPVETIKLFDFYFGPKGRELSNFGVPGLTYDIKNGKPVYKDTVLKAAQPVNNQMYDIGAQIPIGFWQDYEYERQWTNDVALQGIDMYIKNKYVLPQFTGVNLTVEEREIYDKYWPDVKTYMFEMGQSWVMGTKDPEKTWNDYQQQLKNRGFYQVMIVMQKAYDRQY”, the entry is “soluble”; as for “REIADNTYIVLGTMTLNDFNEYFETDLESDNVDTIAGFYLTGVGTIPSQEEKEHFEVESNGKHLELINDKVKDGRVTKLKILVSEVEEKEDEKD”, “not soluble”; as for “RGIPQITGPTTVNGLERGSLTVQCVYRSGWETYLKWWCRGAIWRDCKILVKTSGSEQEVKRDRVSIKDNQKNRTFTVTMEDLMKTDADTYWCGIEKTGNDLGVTVQVTIDPAPVTQEETSSSPT”, “soluble”.
Consider “RGSHMEVRNMVDYELLKKVVEAPGVSGYEFLGIRDVVIEEIKDYVDEVKVDKLGNVIAHKKGEGPKVMIAAHMDQIGLMVTHIEKNGFLRVAPIGGVDPKTLIAQRFKVWIDKGKFIYGVGASVPPHIQKPEDRKKAPDWDQIFIDIGAESKEEAEDMGVKIGTVITWDGRLERLGKHRFVSIAFDDRIAVYTILEVAKQLKDAKADVYFVATVQEEVGLRGARTSAFGIEPDYGFAIDVTIAADIPGTPEHKQVTHLGKGTAIKIMDRSVICHPTIVRWLEELAKKHEIPYQLEILLGGGTDAGAIHLTKAGVPTGALSVPARYIHSNTEVVDERDVDATVELMTKALENIHELKI”, for which the “soluble on expression in E. coli” value is “soluble”.
For “RHQNYGVPWTPGETRQVWDVEARIEFNANGNEVKASLAAPHTQSGYTLIGESASSSGYGVSYINSDSGRRAEWSIRQAKGPQTIYYKAQFLVDPQAKVEPLPPAGDITPPTLSAPQQAAASALIDQAMSRSADNVTFARELIKTLNDPDSQNSALLLNDFDRTDALHKILLSAGVQSKIVGVIELEDGRRRQTIQPMVQVWSGKDWVLFSPNSEQKAVKPNLLVWDESNVSLLDLVGGKNSQVHFSMIKQEVTPQQATNNKVEADGLLNLSIHSLPLEEQAMFK”, the “soluble on expression in E. coli” value was “soluble”.
Take “RIGVIGTGAIGGFYGLMLAHAGHDVHFLLRSEFEAVNRAGLSLNSAVHGFRRLAPVQAYHSAQDMPPCDWLLVGAKTTGNDELAPLIRAAAAPGAKVLLLQNGLGVEERLRPLLPESLHLLGGLCFICVHRGEPGVIEHQAYGGVNLGYHSGPADERRRREIVEEGAALFRESGLESTAMPDLEQARWQKLVWNIPYNGLSVLLKSSTAPLMANADSRSLIEAIMEEVIGAAGACGFILPEGYADQLLAATERMPDYRPSMYHDFAHGRPLELAAIYAAPLARAAA”: the “soluble on expression in E. coli” value is on record as “not soluble”.
Consider “RLNLKAIAERSESLEDFFTRTLPHYCQQQIAIIDARCEFLYQQSHFFENSFLVKEGLINPERFVPMFGMYGLAEAVNLLCEKEGIAARYGKEAAANEVGYRISAQLAEFVANTPVKYGWQKRAMLHAQSGISSDIGTTPGARLPYGDEPDPITHLQTVAPHHAYYYSGISDILTLDETIKRNPQALVQLCLGAFKAGMREFTANVSGNDLVRVTGYMVRLSDLEKYRAEGSRTNTTWL”, for which the “soluble on expression in E. coli” value is on record as “not soluble”.
As to “RLPKKHYTDSLDYALFKELIRVSVASNNKQILDYYEHHCHKKNPATACQYGYVLALLNNNNFQKAAEKLNPLLLQDNSNLNFQIAMAQAELGLSQYQSALSRLAELQNNFPDNYAALMAYAQGLLTANQPQKATAVLLKGSRQYKEDLPLCRELARAQA”, the “soluble on expression in E. coli” value is given as “not soluble”.
In the case of “RLSLRAKAKEINLENLEEFVSEVKARNLKAYLAVNSTVNEDRLEEAGNVINAAAKAGVDAVIAWDPAVILKARKSGLRIHISTQANTTNHETAEFYRALGAERIVLSRELSLEEIREIRQRSEVEVETFVHGAMCMAVSGRCHLSAYVLGKSGNCGECTQPCRWEWELHGENNLVMESRGKYLLSAKDLCMIEHIPALLGARIDSFKVEGRLRDPGYLEVVSRCYREAIDACKEGTYTREKVDSWLSKLSSVYNRGFSTGFYFGIPGLEGFSPEKSMNASEKKRRAAGIVENYYPRQHAAAIKLLEEGLEIGNEILIEGSTTYLKQRVTSLIKNGMSLQKAEKGDEVGLAVDGTVRRNDRIFI”, the “soluble on expression in E. coli” value was “not soluble”.
The result for “RMPGLPDIAFTGDGQMTKHEIRALTLCALAPAAGELLWDVGGGSGTVAIEWMRTHPLCRAVTFERSAARVDQIESNAAALGVPSLAVFGDAPAAFEDVPPELSTPDAIFVGGGVTQDGLLDECWSRLRVGGRMVVNAVTAESEALLLQWFSNCGGQLRKFQVYRGEPLGGFTAWRPQLPVAQWSVTKQSKGDAA” reads “not soluble”; that for “RNVSFRMQPIRIPMGMIGGFIGGQIDEMISTSKDRRIDWSEVYSKDTLYGRGNSG”, “soluble”.
As for “RPAIRKRLLKPKVLDSSPRALVGHRAEVLEDVGATSGQVRLDGSIWSARSMDPTHTFAEGEIVSVIDIQGTTAIVWKEA”, the entry is “soluble”; as for “RPFMQKRAQKALPHVSTGADALVGRKVLVTETIDPTTDKGRVAVDGDVWTARSLTGEVIEKGMRVEIVSYESIVLNVVVLGNDKQ”, “not soluble”.
For the sequence “RPVGTIFVIGDTKEVMKHSHQLVPNPFKGHKINIMNPKVKPIIKEFSFLDGAFIISSTGRVVAAGRYLDVDPKKLEIDIPQGLGSRHLASAAITKVTKAIAITLSESGVIRVFKDGK”, the “soluble on expression in E. coli” value was “soluble”.
On to “RPVWYGEPVDIQPEHRDMMLVVDLSGSMAEEDMKTSNGDFVDRLTAVKQVVSDFIDQRKGDRLGLVLFGDHAYLQTPLTFDRNTVREQLDRTVLNLVGQRTAIGEGLGLATKTFIESNAPQRTIILLSDGANTAGVLEPLEAAQLAKDNHAKIYTVGIGAGEMQVRGFFGKQTVNTARDLDEDTLTKIATMTGGQYFRARNADELAEIYQTIDALEP”, for which the “soluble on expression in E. coli” value is reported as “soluble”.
Consider “RRKPGKCPVTYGQCLMLNPPNFCEMDGQCKRDLKCCMGMCGKSCVSPVKA”, for which the “soluble on expression in E. coli” value is given as “soluble”.
